Reference: US10253076B2, “Peptides and combination of peptides for use in immunotherapy against ovarian cancer and other cancers” (immatics biotechnologies GmbH, priority 2015, dated 2019)

Biological target: HLA-A*02:01 (Homo sapiens, UniProt P04439, D140Y/D185E/D98H/E176V/E277Q/G131W/G231S/I119V/I121R/I166T/I218V/L300P/L318F/N151K/N90K/P208A/P217A/Q86G/Q94H/R138H/R169H/T345S)
Assay: MHC binding assay (UV-ligand exchange, beta2m ELISA, peptide exchange yield)
Details: binding of HLA-class I restricted peptides to HLA-A*02:01, ranged by peptide exchange yield (UV-ligand exchange, β2m ELISA)
Description: Candidate peptides for T cell based therapies according to the present invention were further tested for their MHC binding capacity (affinity). The individual peptide-MHC complexes were produced by UV-ligand exchange, where a UV-sensitive peptide is cleaved upon UV-irradiation, and exchanged with the peptide of interest as analyzed. Only peptide candidates that can effectively bind and stabilize the peptide-receptive MHC molecules prevent dissociation of the MHC complexes. To determine the yield of the exchange reaction, an ELISA was performed based on the detection of the light chain (β2m) of stabilized MHC complexes. The assay was performed as generally described in Rodenko et al. (Rodenko et al., 2006).
96 well MAXISorp plates (NUNC) were coated over night with 2ug/ml streptavidin in PBS at room temperature, washed 4× and blocked for 1 h at 37° C. in 2% BSA containing blocking buffer. […] Peptide-MHC monomers of the UV-exchange reaction were diluted 100 fold in blocking buffer. Samples were incubated for 1 h at 37° C., washed four times, incubated with 2ug/ml HRP conjugated anti-82m for 1 h at 37° C., washed again and detected with TMB solution that is stopped with […]. Absorption was measured at 450 nm. Candidate peptides that show a high exchange yield (preferably higher than 50%, most preferred higher than 75%) are generally preferred for a generation and production of antibodies or fragments thereof, and/or T cell receptors or fragments thereof, as they show sufficient avidity to the MHC molecules and prevent dissociation of the MHC complexes.

| Substance | Peptide exchange |
| --- | --- |
| 61 (FLQGYQLHL; listed as Homo sapiens) [compound 61] | ″++++″ (≥75% = ++++) |
| 599 (YLLNDASLISV; listed as Homo sapiens) [compound 599] | ″+++″ (≥50% = +++) |
| 554 (LLMPSSEDLLL; listed as Homo sapiens) [compound 554] | ″+++″ (≥50% = +++) |
| 152 (ILFEDIFDV; listed as Homo sapiens) [compound 152] | ″+++″ (≥50% = +++) |
| 172 (VLYSYTIITV; listed as Homo sapiens) [compound 172] | ″++″ (≥20% = ++) |
| 180 (FQIDPHSGLVTV; listed as Homo sapiens) [compound 180] | ″++″ (≥20% = ++) |
| 106 (LLYDAVHIVSV; listed as Homo sapiens) [compound 106] | ″+++″ (≥50% = +++) |
| 78 (SLFSSLEPQIQPV; listed as Homo sapiens) [compound 78] | ″+++″ (≥50% = +++) |
| 586 (KLKPGDLVGV; listed as Homo sapiens) [compound 586] | ″+++″ (≥50% = +++) |
| 331 (KVDTVWVNV; listed as Homo sapiens) [compound 331] | ″+++″ (≥50% = +++) |
| 281 (ILRESTEEL; listed as Homo sapiens) [compound 281] | ″+++″ (≥50% = +++) |
| 53 (KMIETDILQKV; listed as Homo sapiens) [compound 53] | ″++++″ (≥75% = ++++) |
| 400 (SLLTEQDLWTV; listed as Homo sapiens) [compound 400] | ″++″ (≥20% = ++) |
| 474 (YLDPALELGPRNV; listed as Homo sapiens) [compound 474] | ″+++″ (≥50% = +++) |
| 140 (YMDAPKAAL; listed as Homo sapiens) [compound 140] | ″++″ (≥20% = ++) |
| 241 (SLVEVNPAYSV; listed as Homo sapiens) [compound 241] | ″+++″ (≥50% = +++) |
| 178 (ALTEIAFVV; listed as Homo sapiens) [compound 178] | ″++++″ (≥75% = ++++) |
| 129 (GLLDGGVDILL; listed as Homo sapiens) [compound 129] | ″+++″ (≥50% = +++) |
| 175 (YLFENISQL; listed as Homo sapiens) [compound 175] | ″+++″ (≥50% = +++) |
| 193 (QLLDADGFLNV; listed as Homo sapiens) [compound 193] | ″+++″ (≥50% = +++) |
| 262 (LLWGDLIWL; listed as Homo sapiens) [compound 262] | ″+++″ (≥50% = +++) |
| 386 (ILFRYPLTI; listed as Homo sapiens) [compound 386] | ″+++″ (≥50% = +++) |
| 298 (VMITKLVEV; listed as Homo sapiens) [compound 298] | ″+++″ (≥50% = +++) |
| 348 (ILLDVKTRL; listed as Homo sapiens) [compound 348] | ″++++″ (≥75% = ++++) |

| Substance | Peptide exchange |
| --- | --- |
| 12 (SLWPDPMEV; listed as Homo sapiens) [compound 12] | ″+++″ (≥50% = +++) |
| 117 (ILPDGEDFLAV; listed as Homo sapiens) [compound 117] | ″+++″ (≥50% = +++) |
| 62 (VLLDVSAGQLLM; listed as Homo sapiens) [compound 62] | ″++++″ (≥75% = ++++) |
| 192 (KMLDGASFTL; listed as Homo sapiens) [compound 192] | ″+++″ (≥50% = +++) |
| 596 (ALLDQTKTLAESAL; listed as Homo sapiens) [compound 596] | ″+++″ (≥50% = +++) |
| 382 (ALQNYIKEA; listed as Homo sapiens) [compound 382] | ″++″ (≥20% = ++) |
| 35 (KINDTIYEV; listed as Homo sapiens) [compound 35] | ″+++″ (≥50% = +++) |
| 211 (LLWPGAALL; listed as Homo sapiens) [compound 211] | ″++″ (≥20% = ++) |
| 13 (YLMDESLNL; listed as Homo sapiens) [compound 13] | ″+++″ (≥50% = +++) |
| 379 (IMEGTLTRV; listed as Homo sapiens) [compound 379] | ″++″ (≥20% = ++) |
| 588 (SLLPLSHLV; listed as Homo sapiens) [compound 588] | ″+++″ (≥50% = +++) |
| 488 (FLAEDPKVTL; listed as Homo sapiens) [compound 488] | ″+++″ (≥50% = +++) |
| 183 (FGLDLVTEL; listed as Homo sapiens) [compound 183] | ″+++″ (≥50% = +++) |
| 100 (YLLSTNAQL; listed as Homo sapiens) [compound 100] | ″++++″ (≥75% = ++++) |
| 583 (ILANDGVLLAA; listed as Homo sapiens) [compound 583] | ″+++″ (≥50% = +++) |
| 432 (TLIEESAKV; listed as Homo sapiens) [compound 432] | ″++″ (≥20% = ++) |
| 506 (KLLGKVETA; listed as Homo sapiens) [compound 506] | ″+++″ (≥50% = +++) |
| 522 (TLWYRSPEV; listed as Homo sapiens) [compound 522] | ″++″ (≥20% = ++) |
| 26 (ALLELAEEL; listed as Homo sapiens) [compound 26] | ″+++″ (≥50% = +++) |
| 116 (YHIDEEVGF; listed as Homo sapiens) [compound 116] | ″+″ (≥10% = +) |
| 334 (TLTKVLVAL; listed as Homo sapiens) [compound 334] | ″+++″ (≥50% = +++) |
| 553 (SLLNQDLHWSL; listed as Homo sapiens) [compound 553] | ″++++″ (≥75% = ++++) |
| 485 (NVPDSFNEV; listed as Homo sapiens) [compound 485] | ″+++″ (≥50% = +++) |
| 89 (YILPTETIYV; listed as Homo sapiens) [compound 89] | ″++++″ (≥75% = ++++) |

| Substance | Peptide exchange |
| --- | --- |
| 517 (LLMPIPEGLTL; listed as Homo sapiens) [compound 517] | ″+++″ (≥50% = +++) |
| 236 (GLLEAKVSL; listed as Homo sapiens) [compound 236] | ″+++″ (≥50% = +++) |
| 366 (RLLDMGETDLML; listed as Homo sapiens) [compound 366] | ″+++″ (≥50% = +++) |
| 228 (AMQEYIAVV; listed as Homo sapiens) [compound 228] | ″++″ (≥20% = ++) |
| 280 (VLPDPEVLEAV; listed as Homo sapiens) [compound 280] | ″+++″ (≥50% = +++) |
| 127 (KIGDEPPKV; listed as Homo sapiens) [compound 127] | ″++″ (≥20% = ++) |
| 591 (SMAELDIKL; listed as Homo sapiens) [compound 591] | ″+++″ (≥50% = +++) |
| 363 (KVLDVSDLESV; listed as Homo sapiens) [compound 363] | ″++″ (≥20% = ++) |
| 550 (FLYDEIEAEVNL; listed as Homo sapiens) [compound 550] | ″+++″ (≥50% = +++) |
| 612 (YLYNEGLSV; listed as Homo sapiens) [compound 612] | ″+++″ (≥50% = +++) |
| 173 (LLDSASAGLYL; listed as Homo sapiens) [compound 173] | ″+++″ (≥50% = +++) |
| 390 (ALFMKQIYL; listed as Homo sapiens) [compound 390] | ″+++″ (≥50% = +++) |
| 505 (SLAPGDVVRQV; listed as Homo sapiens) [compound 505] | ″++″ (≥20% = ++) |
| 616 (VLIDEVESL; listed as Homo sapiens) [compound 616] | ″+++″ (≥50% = +++) |
| 585 (ALWDLAADKQTL; listed as Homo sapiens) [compound 585] | ″++++″ (≥75% = ++++) |
| 171 (LLLPLQILL; listed as Homo sapiens) [compound 171] | ″+++″ (≥50% = +++) |
| 136 (YLADPSNLFVV; listed as Homo sapiens) [compound 136] | ″+++″ (≥50% = +++) |
| 115 (AIAGAGILYGV; listed as Homo sapiens) [compound 115] | ″++″ (≥20% = ++) |
| 608 (SLLSVSHAL; listed as Homo sapiens) [compound 608] | ″+++″ (≥50% = +++) |
| 520 (LAVHPSGVAL; listed as Homo sapiens) [compound 520] | ″+″ (≥10% = +) |
| 391 (YVYPQRLNFV; listed as Homo sapiens) [compound 391] | ″+++″ (≥50% = +++) |
| 469 (YLASDEITTV; listed as Homo sapiens) [compound 469] | ″+++″ (≥50% = +++) |
| 562 (YLEELPEKLKL; listed as Homo sapiens) [compound 562] | ″+++″ (≥50% = +++) |
